3 molecules from patent publication US20100166759A1 can be followed below.

Broadly, the Kd is the equilibrium constant for the complex coming apart. A lower Kd goes with tighter binding. As a reminder, the koff is a measure of how fast the partners let go of each other. The kon is a measure of how fast the partners come together.

The labels stand for the following.
B1: MTBcc peptide (peptide)
peptide: SAGSCKCKESKSTS
B2: MTAn peptide (peptide)
peptide: KKSSCSCSPVGSAK
B3: MTAcc peptide (peptide)
peptide: AQGSICKGASDKSS

For the experiment, the target named is MT2 protein (from Sigma) (UniProt P02795). Briefly: SPR (BIAcoreX), MT2 immobilised on CM5 chip, peptide injected. On the technique in general: Surface plasmon resonance follows binding to a sensor surface in real time, without labels.
In turn, B1 yielded a Kd of 160 nM, a koff of 0.000501 s⁻¹ and a kon of 2830 M⁻¹ s⁻¹.
Consider B2, for which the Kd was 367 nM, the koff stood at 0.00574 s⁻¹ and the kon was determined as 15700 M⁻¹ s⁻¹.
Regarding B3, the Kd came to 89.5 nM, the koff worked out at 0.0004 s⁻¹ and the kon was determined as 4540 M⁻¹ s⁻¹.
